According to patent US20240174750A1 (VIRTUOSO BINCO, published 2024):
Changes are numbered by the printed parent chain.

B1: M.69H1H9 (antibody, human IgG1, kappa, V domains shown)
VH: EVQLQQSGPELVKPGASVKMSCKTSGYTFTEYTIHWVKQSHEKSLEWIGSINPNNGLFRYNQKFKGKATLTVDKSSSTAYMELRSLTSEDSAVYYCARDYGFGYSDYWGQGTTLTVSS
VL: DIQMIQSPSSMFASLGDRVSLSCRASQGIRGNLDWYQQKPGGTIKLLIYSTSNLNSGVPSRFSGSGSGSDYSLTISSLESEDFADYYCLQRNAFPWTFGGGTKLEIKR
notes: Chimeric: mouse variable domains, human IgG1 and human kappa constant regions
B2: M.95D4A11 (antibody, human IgG1, kappa, V domains shown)
VH: QVQLQQPGAELVRPGASVKLSCKASGYTFTSYWMNWVKQRPEQGLEWIGSIDPYDSETHYNQKFKDKAILTVDKSSSTAYMQLSSLTSEDSAVYYCARGRGYAMDYWGQGTSVTVSS
VL: DIQMTQSPASLSASVGETVTITCRASGNIHNYLAWYQQKQGKSPQLLVYNAKTLADGVPSRFSGSGSGTQYSLKINSLQPEDFGSYYCQHFWSTPPTFGGGTKLEIKR
notes: as for B1
B3: R.13A2 (antibody, human IgG1, kappa, V domains shown)
VH: QSLEESGGDLVKPGASLTVTCTASGFSFSSYYYVCWVRQAPGKGLEWIACIYAGSSGDTYYASWAKGRFTISKTSSTTVTLQMTSLTAADTATYFCARGYTGYSYQFNFWGPGTLVTVSS
VL: DVVMTQTPASVEAAVGGTVTIKCQASQSISNELSWYQQKPGQPPKLLIYRASTLESGVPSRFKGSGSGTEFTLTISDLESADAATYYCQCTYITYGNAFGGGTEVVVKR
notes: Chimeric: rabbit variable domains, human IgG1 and human kappa constant regions
B4: R.19H7 (antibody, human IgG1, kappa, V domains shown)
VH: QEQLKESGGGLVTPGGTLTLTCTASGFTISSYHMCWVRQAPGKGLEWIGCIYPNNDFTWYATWAKGRFTISKTSSTTVDLRMTTPTTEETATYFCARASGNAYNLLDLWGQGTLVTVSS
VL: AIVMTQTPASVSVAVGGSVTINCQSSESVYRDNCLGWFQQKPGQPPKLLIYRASTLASGVPSRFKGSGSGTQFTLTISDVVSDDAATYYCAGYKSTITDGTAFGGGTEVVVKR
notes: as for B3
B5: R.9B11 (antibody, human IgG1, kappa, V domains shown)
VH: QEQLEESGGDLVKPEGSLTLTCTASGFSFSSYWMAWVRQAPGKGLEWIACIYIGSGSGTTYYASWAKGRFTISKTSSTTVTLQMTSLTAADTAIYFCARWAGSDGHFTLWGPGTLVTVSL
VL: ALVMTQTPASVEAAVGGTVTINCQASQSINNLLAWYQQKPGQRPKLLIYDASDLASGVSSRFKGSGSGTEYTLTISGVQSADAATYYCQGYFYGSSVDLVFGGGTEVVVKR
notes: as for B3
B6: M.20B10E9 (antibody, human IgG1, kappa, V domains shown)
VH: EVQLQQSGAELVRPGASVKLSCTASGFNIEDTYMHWVKQRPEQGLEWIGRIDPANGKTKSDPKFQGKATITTDTSSNTAYLQLSSLTSEDTAVYYCAKGDGYYVGGLDYWGQGTTLTVSS
VL: DIQMNQSPSSLSASLGDTITITCHASQNIHVWLSWYQQKPGNIPKLLIYKASNLHTGVPSRFSGSGSGTGFTLTISSLQPEDIATYYCQQGQSYPYTFGGGTKLEIKR
notes: as for B1
B7: M.30A5C6 (antibody, human IgG1, kappa, V domains shown)
VH: B6 VH with R13K, K57N, S60Y, I70V, T72A, Y95C, K98R, Y102H, D108N, T115S
VL: B6 VL with H30N, S93N
notes: as for B1
B8: R.1B11 (antibody, human IgG1, kappa, V domains shown)
VH: QSLEESGGRLVTPGTPLTLTCTASGFSLNSYHMSWVRQAPGEGLEWIGIIYADTGNADYASWTKGRFTISKASTTVELRITSPTSEDTATYFCARGPTNTYPTYFALWGPGTLVTVSS
VL: AFELTQTPSSVEAAVGGTVTIKCQASQSITTYLAWYQQKPGQPPKLLIYGASNLESGVPSRFKGSRSGTEYTLTISDLESADAATYYCQSYYAISKSAFGGGTEVVVKR
notes: as for B3
B9: R.20H1 (antibody, human IgG1, kappa, V domains shown)
VH: QEQLVESGGGLVKPGASLTLTCKASGFSFSSGYYMCWVRQAPGKGLEWIGCIYVRSDSTYYASWAKGRFTISKASSTTVTLQMTSLTAADTATYFCARGVTGDSYRFNFWGPGTLVTVSS
VL: DVVMTQTPASVEAAVGGTVTIKCQASQSISNELSWYQQKSGQPPKLLIYRASTLESGVPSRFKGSGSGTEFTLTISDLESADAATYYCQSTYYGTSYGNAFGGGTEVVVKR
notes: as for B3
B10: R.1H3 (antibody, human IgG1, kappa, V domains shown)
VH: QSLEESGGDLVKPGASLTLTCTASGFSFSSGYYMCWVRQAPGKGLEWIACIYMRSGDTYLASWAKGQFTISKTSSTTVTLQMTSLTAADTATYFCGRGGTSYALNLWGQGTLVTVSS
VL: DVVMTQTPASVSEPVGGTVTINCQASQSISNECSWYQQKPGQPPKLLIYRASTLESGVPSRFSGSGSGTEFTLTISDLESADAATYYCQSTYYGTTGNTFGGGTEVVVKR
notes: as for B3
B11: hu.18B9.3i (antibody, V domains shown)
VH: EVQLVESGGGLVQPGGSLRLSCAASGFSFNSGYMSWVRQAPGKGLEWIASIYAGSSGKTYYADWAKGRFTISKTSSKTTVYLQMNSLRAEDTAVYYCARDSGGTYYTDYLYLWGQGTLVTVSS
VL: DIQMTQSPSSLSASVGDRVTITCRASEGISSYLSWYQQKPGKAPKLLIYKASTLTSGVPSRFSGSGSGTDFTLTISSLQPEDFATYYCQSTYGSSGSSGYGAAFGGGTKVEIK
notes: Humanised 18B9, parent of the alanine scan; also called hu.18B9.3i antibody
B12: hu.18B9.3i LC_Y92A (antibody, name in Kabat numbering, V domains shown)
VH: B11 VH
VL: B11 VL with Y92A
notes: Alanine scan variant of hu.18B9.3i; Kabat numbering
B13: hu.18B9.3i HC_L100e_A (antibody, V domains shown)
VH: B11 VH with L110A
VL: B11 VL
notes: as for B12
B14: hu.18B9.3i LC_G93A (antibody, name in Kabat numbering, V domains shown)
VH: B11 VH
VL: B11 VL with G93A
notes: as for B12
B15: hu.18B9.3i LC_G95a_A (antibody, V domains shown)
VH: B11 VH
VL: B11 VL with G96A
notes: as for B12
B16: hu.18B9.3i HC_L102A (antibody, name in Kabat numbering, V domains shown)
VH: B11 VH with L112A
VL: B11 VL
notes: as for B12
B17: hu.18B9.3i LC_G95f_A (antibody, V domains shown)
VH: B11 VH
VL: B11 VL with G101A
notes: as for B12
B18: hu.18B9.3i HC_T99A (antibody, name in Kabat numbering, V domains shown)
VH: B11 VH with T104A
VL: B11 VL
notes: as for B12
B19: hu.18B9.3i HC_S96A (antibody, name in Kabat numbering, V domains shown)
VH: B11 VH with S101A
VL: B11 VL
notes: as for B12
B20: hu.18B9.3i LC_S90A (antibody, name in Kabat numbering, V domains shown)
VH: B11 VH
VL: B11 VL with S90A
notes: as for B12
B21: hu.18B9.3i HC_Y100A (antibody, name in Kabat numbering, V domains shown)
VH: B11 VH with Y105A
VL: B11 VL
notes: as for B12
B22: hu.18B9.3i HC_Y100a_A (antibody, V domains shown)
VH: B11 VH with Y106A
VL: B11 VL
notes: as for B12
B23: hu.18B9.3i LC_Y95e_A (antibody, V domains shown)
VH: B11 VH
VL: B11 VL with Y100A
notes: as for B12
B24: hu.18B9.3i LC_Q89A (antibody, name in Kabat numbering, V domains shown)
VH: B11 VH
VL: B11 VL with Q89A
notes: as for B12
B25: hu.18B9.3i LC_S94A (antibody, name in Kabat numbering, V domains shown)
VH: B11 VH
VL: B11 VL with S94A
notes: as for B12
B26: hu.18B9.3i LC_S95b_A (antibody, V domains shown)
VH: B11 VH
VL: B11 VL with S97A
notes: as for B12
B27: hu.18B9.3i LC_S95c_A (antibody, V domains shown)
VH: B11 VH
VL: B11 VL with S98A
notes: as for B12
B28: hu.18B9.3i LC_T91A (antibody, name in Kabat numbering, V domains shown)
VH: B11 VH
VL: B11 VL with T91A
notes: as for B12
B29: hu.18B9.3i HC_T100b_A (antibody, V domains shown)
VH: B11 VH with T107A
VL: B11 VL
notes: as for B12
B30: hu.18B9.3i LC_G95d_A (antibody, V domains shown)
VH: B11 VH
VL: B11 VL with G99A
notes: as for B12
B31: hu.18B9.3i LC_S95A (antibody, name in Kabat numbering, V domains shown)
VH: B11 VH
VL: B11 VL with S95A
notes: as for B12

Biological target: T1, extracellular domain (ECD) of human CD47 (19aa-139aa) with C-terminal 6xHis tag (human, UniProt Q08722 19-139)
T1 construct: also called recombinant CD47; recombinant human CD47
Test: ELISA, coated recombinant CD47; EC50 as grade, legend the 6th table, row 26
Method: A 96-well plate was coated overnight at 4° C. with 1 μg/ml recombinant CD47. After washing 3 times, the plate was blocked with 300 μL 1% BSA in PBST at 37° C. for 1 hour. Serially diluted antibodies were added and incubated at 37° C. for 1 hour. The plate was then washed 4 times with PBST and incubated with 1:5000 diluted 2nd antibody (Sigma, Cat #A0293) at 37° C. for 1 hour.

B1 and B2 fall in the same range of EC50: 0.01 to 0.1 nM for the first, 0.01 to 0.1 nM for the second.

Compared with B3, B4 is lower in EC50: > 0.5 nM for the first, 0.1 to 0.5 nM for the second. The second is the more potent here.

B5 and B6 fall in the same range of EC50: 0.01 to 0.1 nM for the first, 0.01 to 0.1 nM for the second.

B7 and B8 fall in the same range of EC50: 0.01 to 0.1 nM for the first, 0.01 to 0.1 nM for the second.

Compared with B9, B10 is higher in EC50: 0.1 to 0.5 nM for the first, > 0.5 nM for the second. The first is the more potent here.

Biological target: T2, CD47 on the surface of CD47+ cells (human, UniProt Q08722 19-323)
T2 construct: whole, on cells; also called CD47+ cell lines; CD47 on Raji cells, HCT-15 cells, human red blood cells (RBCs), human platelets
Test: flow cytometry on CD47+ cell lines; EC50 as grade, legend the 7th table, row 26
Method: Antibody binding to CD47+ cell lines was quantified by flow cytometry. Harvested cells were centrifuged at 2000 rpm for 5 min, resuspended in 10-15 mL ice-cold culture medium, and then counted. Cells were resuspended in blocking buffer (PBS plus 2% FBS) at a concentration of 3×10⁶ cells/mL. 100 μL of the cell suspension was dispensed into each well of a 96-well plate. Purified antibodies were diluted to the desired concentrations with blocking buffer and 100 μL of diluted antibodies were added to the well and incubated for 1 hour at 4° C. The cells were then washed 3 times with PBS plus 2% FBS. […] The cells were then washed 3 times with 200 μL PBS by centrifuging at 2000 rpm for 5 min. After the last wash, the cells were resuspended in 300 μL cold PBS and analyzed on a FACSVerse™ (BD Biosciences) flow cytometer.

B1 and B2 fall in the same range of EC50: 0.1 to 0.5 nM for the first, 0.1 to 0.5 nM for the second.

Compared with B3, B4 is lower in EC50: 0.5 to 5 nM for the first, 0.1 to 0.5 nM for the second.

First: B5
Second: B6
The EC50 of the first is higher: 0.5 to 5 nM for the first, 0.1 to 0.5 nM for the second. The second is the more potent here.

B7 and B8 fall in the same range of EC50: 0.1 to 0.5 nM for the first, 0.1 to 0.5 nM for the second.

B9 and B10 fall in the same range of EC50: 0.1 to 0.5 nM for the first, 0.1 to 0.5 nM for the second.

Biological target: T1, extracellular domain (ECD) of human …
Test: ELISA, recombinant human CD47; EC50 as grade, legend the 11th table, row 38

B11 and B12 fall in the same range of EC50: 0.01 to 0.5 nM for the first, 0.01 to 0.5 nM for the second.

First: B13
Second: B14
The EC50 of the first is higher: > 5 nM for the first, 0.01 to 0.5 nM for the second.

B15 and B16 fall in the same range of EC50: 0.01 to 0.5 nM for the first, 0.01 to 0.5 nM for the second.

B17 and B18 fall in the same range of EC50: 0.01 to 0.5 nM for the first, 0.01 to 0.5 nM for the second.

First: B19
Second: B20
The EC50 of the first is higher: 0.5 to 5 nM for the first, 0.01 to 0.5 nM for the second. The second is the more potent here.

B21 and B22 fall in the same range of EC50: 0.01 to 0.5 nM for the first, 0.01 to 0.5 nM for the second.

First: B23
Second: B24
The EC50 of the first is lower: 0.01 to 0.5 nM for the first, 0.5 to 5 nM for the second. The first is the more potent here.

B25 and B26 fall in the same range of EC50: 0.01 to 0.5 nM for the first, 0.01 to 0.5 nM for the second.

B27 and B28 fall in the same range of EC50: 0.01 to 0.5 nM for the first, 0.01 to 0.5 nM for the second.

B29 and B30 fall in the same range of EC50: 0.01 to 0.5 nM for the first, 0.01 to 0.5 nM for the second.

In the case of B31, the EC50 is reported as 0.01 to 0.5 nM.

Biological target: T2, CD47 on the surface of CD47+ cells
Test: flow cytometry, competition with SIRPA-mIgG2a on CD47+ tumor cells; IC50 as grade, legend the 8th table, row 26
Method: Tumor cells were harvested, centrifuged, and then resuspended in FACS buffer (PBS plus 2% FBS) at a concentration of 2×10⁶ cells/mL. 100 μL of the cell suspension was dispensed into each well of a 96-well plate. The plate was centrifuged for 5 min and 300×g, and the supernatants were discarded. […] After washing twice with FACS buffer, the plates were resuspended with 300 μL FACS buffer and analyzed by flow cytometry.

B1 and B2 fall in the same range of IC50: 0.1 to 1 nM for the first, 0.1 to 1 nM for the second.

First: B3
Second: B4
The IC50 of the first is lower: 0.1 to 1 nM for the first, 1 to 5 nM for the second.

First: B5
Second: B6
The IC50 of the first is higher: 1 to 5 nM for the first, 0.1 to 1 nM for the second. The second is the more potent here.

B7 and B8 fall in the same range of IC50: 0.1 to 1 nM for the first, 0.1 to 1 nM for the second.

B9 and B10 fall in the same range of IC50: 0.1 to 1 nM for the first, 0.1 to 1 nM for the second.
